Data as given in PMC3511314, “Functional Characterization of Two M42 Aminopeptidases Erroneously Annotated as Cellulases” (PLoS ONE, 2012).

Key:
[1] = target: the molecule itself; assay: SEC; gel filtration on Superdex 200 (16/70 column), final step of the purification, 50 mM Tris, 300 mM NaCl pH 7.3; for CelM all buffers with 1 mM glutathione; oligomer size from the apparent mass at elution
[2] = target: the molecule itself; assay: not stated; unpublished data; oligomeric state of YpdE, method not given

B1: TmPep1050 protein of Thermotoga maritima (TM1050 ORF) (enzyme, UniProt Q9X0E0 1-331, looked up)
chain: MKELIRKLTEAFGPSGREEEVRSIILEELEGHIDGHRIDGLGNLIVWKGSGEKKVILDAHIDEIGVVVTNVDDKGFLTIEPVGGVSPYMLLGKRIRFENGTIGVVGMEGETTEERQENVRKLSFDKLFIDIGANSREEAQKMCPIGSFGVYDSGFVEVSGKYVSKAMDDRIGCAVIVEVFKRIKPAVTLYGVFSVQEEVGLVGASVAGYGVPADEAIAIDVTDSADTPKAIKRHAMRLSGGPALKVKDRASISSKRILENLIEIAEKFDIKYQMEVLTFGGTNAMGYQRTREGIPSATVSIPTRYVHSPSEMIAPDDVEATVDLLIRYLGA
notes: TmPep1050, M42 aminopeptidase of Thermotoga maritima, product of the TM1050 ORF carried by the JCSG plasmid TmCD00089984; predicted molecular weight of the monomer 37.5 kDa; the tag of the JCSG construct is not described; also called 3ISX; source: E. coli MC1061, plasmid TmCD00089984, purified (heat step 60°C, Ni-NTA IMAC, Superdex 200)
[1]
  stoichiometry N: 2

B2: YpdE, M42 aminopeptidase of E. coli (enzyme, UniProt P77585 1-345, looked up)
chain: MDLSLLKALSEADAIASSEQEVRQILLEEADRLQKEVRFDGLGSVLIRLNESTGPKVMICAHMDEVGFMVRSISREGAIDVLPVGNVRMAARQLQPVRITTREECKIPGLLDGDRQGNDVSAMRVDIGARSYDEVMQAGIRPGDRVTFDTTFQVLPHQRVMGKAFDDRLGCYLLVTLLRELHDAELPAEVWLVASSSEEVGLRGGQTATRAVSPDVAIVLDTACWAKNFDYGAANHRQIGNGPMLVLSDKSLIAPPKLTAWVETVAAEIGVPLQADMFSNGGTDGGAVHLTGTGVPTVVMGPATRHGHCAASIADCRDILQMQQLLSALIQRLTRETVVQLTDFR
notes: YpdE, one of three M42 aminopeptidases of E. coli; Only named in the discussion as unpublished data; the construct is not described; copies: 12
[2]
  stoichiometry N: 12
